Measured values taken from patent publication US12263245B2, “Immunomodulating treatments of body cavities” (UROGEN PHARMA LTD., priority 2023, dated 2025).

What was measured:
[1] = set-up: species or system human; conditions: in vivo
[2] = Aggregation stability of AGEN1884 drug product; type: physicochemical
Source text: AGEN1884 is very stable to aggregation.

[3] = test system: CD4+ICOShi T cells; conditions: patients treated systemically with two doses, cited from earlier work

Row | Substance | Sustained concentration of zalifrelimab detected in urine overtime [1] | Increase in aggregate ([2]; all samples at all ambient temperatures analyzed (even elevated) through the nine-month time point) | Zalifrelimab aggregates after 24 hours ([2]; stored at about 2° C.-8° C. for at least 24 hours) | Expression of CD4+ICOShi T cells ([3]; blood samples) | Increase in levels of IFN-γ compared to untreated patients [3]
1 | zalifrelimab: recombinant, fully human immunoglobulin G1 monoclonal antibody that neutralizes the inhibitory effects of CTLA-4 | below the level of quantitation | no increase in aggregate was detected | substantially free from zalifrelimab aggregates | – | –
2 | ipilimumab: an anti-CTLA-4 antibody | – | – | – | increased expression | approximately five-fold
